Measured values from US20090305982A1.

Tests used:
[1] = molecular target: human IL-4 receptor alpha on cells (peripheral blood lymphocytes, primary B cells, TF-1, A549, PBMC) (human) (UniProt P24394); assay: cell-based or functional assay
[2] = molecular target: human IL-4 receptor alpha on cells (peripheral blood lymphocytes, primary B cells, TF-1, A549, PBMC) (human) (UniProt P24394); assay: flow cytometry, human peripheral blood lymphocytes, 10 µg/ml
[3] = molecular target: cynomolgus IL-4 receptor alpha on peripheral blood lymphocytes (cynomolgus); assay: flow cytometry, cynomolgus peripheral blood lymphocytes, 10 µg/ml

- % Positive for STAT-6 phosphorylation, TF-1 cells + IL-4 [1]: 72%
- % Positive for STAT-6 phosphorylation, TF-1 cells + IL-13 [1]: 84%
- MFI, STAT-6 phosphorylation, TF-1 cells + IL-4 [1]: 13.1
- MFI, STAT-6 phosphorylation, TF-1 cells + IL-13 [1]: 18.6
- % Positive [2]: 9%
- MFI [2]: 3.2
- % Positive [3]: 5%
- MFI [3]: 1.9
Substance: wildtype tear lipocalin (gene product of pTLPC10) (from UniProt P31025 23-175)
